According to patent US20110135636A1 (SYMPHOGEN A S, published 2011):
Each block holds one binder with its values, some of them ahead of it.

How the values were obtained:
[1] = target: T1, Cynomolgus EGFR extracellular domain (Cynomolgus monkey (Macaca fascicularis), UniProt P55245 25-645 (rhesus entry)); assay: ELISA on coated Cynomolgus rEGFR ECD
T1 construct: Cloned without signal peptide; also called Cynomolgus rEGFR ECD; Cynomolgus EGFR ECD
Procedure: To verify that tested Anti-EGFR antibodies bound equally well to both Human and Cynomolgus EGFR ECD and accordingly warranting toxicology studies in Cynomolgus monkeys, serial four fold dilutions of antibodies beginning from 1 μg/ml were tested by ELISA for binding to recombinant Human and Cynomolgus EGFR ECD proteins. […] ELISA wells were coated with 50 μl/well of full length EGFR at a concentration of 1 μg/ml in PBS overnight at 4° C. The next morning wells were washed twice with PBS-T and blocked for one hour with 100 μl PBS-T-1% BSA at room temperature, followed by wash twice in PBS-T. Next 50 μl of serially diluted Anti-EGFR antibodies and control antibodies were added to wells and incubated for one hour at room temperature. After antibody incubation wells were washed five times with PBS-T, followed by incubation with 50 μl/well Streptavidin-HRP secondary reagent diluted 1:3000 in blocking buffer and incubation at room temperature for 30 min. Finally wells were washed five times with PBS-T and plates were developed by adding 50 μL/well TMB substrate and incubated at room temperature. After incubation the reaction was stopped by addition of 1 M H₂SO₄; 100 μl/well and plates were read at OD 450 nm.

[2] = target: T2, full length human EGFR expressed on the cell surface (human, UniProt P00533 25-1210); assay: cell ELISA, IgG titrated on unfixed A431-NS cells after saturation with Fab 992 and Fab 1030; given as ED50
T2 construct: whole, on cells; also called EGFR on A431-NS cells; EGFR on HN5 cells
Procedure: (§1) Cell ELISA: The ELISA was performed essentially as described in example 15 with modifications. Cells were left unfixed to allow conformational EGFR flexibility after antibody additions. Briefly, 10,000 A431-NS cells were grown in 96 well ELISA plates containing DMEM with added 0.5% FCS and 1% P/S at 37° C., 5% CO₂ overnight. […] 25 μl DMEM containing 1% BSA was added to wells used for testing of IgG antibodies without added Fab fragments. […] Next, wells were washed four times with PBS and 50 μl of a secondary monoclonal Mouse-anti-Human (Fc specific) HRP conjugate diluted 1:5000 in DMEM containing 1% BSA was added and incubated on ice for 30 min. Finally wells were washed four times with PBS and plates developed by adding 50 μl/well TMB substrate and read at 620 nm every 5-15-30 min. After incubation with substrate the reaction was stopped by addition of 1 M H₂SO₄ and absorbance read at 450 nm. The functional affinity expressed as ED50 values were calculated by subtraction of the average background binding with secondary reagent only, followed by normalization of the binding curves by plotting % maximal binding relative to each antibody tested.
(§2) Investigations of antibody induced binding enhancements were determined by concurrent ELISA binding studies, employing same secondary antibody reagent and incubation times.

[3] = target: T2, full length human EGFR expressed on the …; assay: cell ELISA, IgG titrated on unfixed A431-NS cells after saturation with Fab 1030; given as ED50
Procedure: as §1, §2

[4] = target: T2, full length human EGFR expressed on the …; assay: cell ELISA, IgG titrated on unfixed A431-NS cells after saturation with Fab 1024 and Fab 1030; given as ED50
Procedure: as §1, §2

binding result [1]: binds
B1: antibody 1208 (antibody, human IgG1, kappa, V domains shown)
VH: EVQLVESGGGLVKPGGSLKLSCAASGFAFSSYDMSWVRQTPEKRLEWVAYIGSGDDNTHYPDSVKGRFTISRHNAKNTLYLQMSSLKSEDTAMYYCARQKYGNYGDTMDYWGQGTSVTVSS
VL: DVVMTQTPLSLPVSLGDQASISCRSSQSLVHSNGNTYLHWYLQKPGQSPKLLIYKVSNRFSGVPDRFSGSGSGTDFTLKISRVEAEDLGVYFCSQSTHVPTFGGGTKLEIKR
notes: Chimeric IgG1 kappa; also called clone 1208

EC50 [2]: 800 pM
B2: antibody 1024 (antibody, human IgG1, kappa, V domains shown)
VH: QVQLQQPGAELVEPGGSVKLSCKASGYTFTSHWMHWVKQRPGQGLEWIGEINPSSGRNNYNEKFKSKATLTVDKSSSTAYMQFSSLTSEDSAVYYCVRYYGYDEAMDYWGQGTSVTVSS
VL: DIVMTQAAFSNPVTLGTSASISCRSSKSLLHSNGITYLYWYLQKPGQSPQLLIYQMSNLASGVPDRFSSSGSGTDFTLRISRVEAEDVGVYYCAQNLELPYTFGGGTKLEIKR
notes: Chimeric IgG1 kappa

EC50 [3]: 400 pM
EC50 [4]: 500 pM
B3: antibody 992 (antibody, human IgG1, kappa, V domains shown)
VH: EVQLQQPGSELVRPGASVKLSCKASGYTFTSYWMHWVKQRPGQGLEWIGNIYPGSRSTNYDEKFKSKATLTVDTSSSTAYMQLSSLTSEDSAVYYCTRNGDYYVSSGDAMDYWGQGTSVTVSS
VL: DIQMTQTTSSLSASLGDRVTISCRTSQDIGNYLNWYQQKPDGTVKLLIYYTSRLHSGVPSRFSGSGSGTDFSLTINNVEQEDVATYFCQHYNTVPPTFGGGTKLEIKR
notes: Chimeric mouse/human IgG1 kappa; the VL entry includes the human kappa constant region
